{"source": "patent US12338277", "test_in_all_cases": "cell-based or functional assay", "key": {"[1]": {"target": "HIV-1 Env of pseudovirus 191084 B7-19 (HIV-1)"}, "[2]": {"target": "HIV-1 Env of pseudovirus 235-47 (HIV-1)"}, "[3]": {"target": "HIV-1 Env of pseudovirus 263-8 (HIV-1)"}, "[4]": {"target": "HIV-1 Env of pseudovirus 3817.v2.c59 (HIV-1)"}, "[5]": {"target": "HIV-1 Env of pseudovirus 6480.v4.c25 (HIV-1)"}, "[6]": {"target": "HIV-1 Env of pseudovirus AC10.0.29 (HIV-1)"}, "[7]": {"target": "HIV-1 Env of pseudovirus BJOX028000.10.3 (HIV-1)"}, "[8]": {"target": "HIV-1 Env of pseudovirus C1080.c03 (HIV-1)"}, "[9]": {"target": "HIV-1 Env of pseudovirus CNE19 (HIV-1)"}, "[10]": {"target": "HIV-1 Env of pseudovirus CNE5 (HIV-1)"}, "[11]": {"target": "HIV-1 Env of pseudovirus CNE52 (HIV-1)"}, "[12]": {"target": "HIV-1 Env of pseudovirus CNE8 (HIV-1)"}, "[13]": {"target": "HIV-1 Env of pseudovirus Ce0393_C3 (HIV-1)"}, "[14]": {"target": "HIV-1 Env of pseudovirus Ce1176_A3 (HIV-1)"}, "[15]": {"target": "HIV-1 Env of pseudovirus Ce703010054_2A2 (HIV-1)"}, "[16]": {"target": "HIV-1 Env of pseudovirus Du172.17 (HIV-1)"}, "[17]": {"target": "HIV-1 Env of pseudovirus Du422.1 (HIV-1)"}, "[18]": {"target": "HIV-1 Env of pseudovirus HIV-001428-2.42 (HIV-1)"}, "[19]": {"target": "HIV-1 Env of pseudovirus PVO.4 (HIV-1)"}, "[20]": {"target": "HIV-1 Env of pseudovirus Q259.d2.17 (HIV-1)"}, "[21]": {"target": "HIV-1 Env of pseudovirus Q842.d12 (HIV-1)"}, "[22]": {"target": "HIV-1 Env of pseudovirus QH0692.42 (HIV-1)"}, "[23]": {"target": "HIV-1 Env of pseudovirus SC422661.8 (HIV-1)"}, "[24]": {"target": "HIV-1 Env of pseudovirus WITO4160.33 (HIV-1)"}, "[25]": {"target": "HIV-1 Env of pseudovirus ZM197M.PB7 (HIV-1)"}, "[26]": {"target": "HIV-1 envelope of pseudovirus 1054_07_TC4_1499 (HIV-1)"}, "[27]": {"target": "HIV-1 envelope of pseudovirus 3016.v5.c45 (HIV-1)"}, "[28]": {"target": "HIV-1 envelope of pseudovirus 3103.v3.c10 (HIV-1)"}, "[29]": {"target": "HIV-1 envelope of pseudovirus 3415.v1.c1 (HIV-1)"}, "[30]": {"target": "HIV-1 envelope of pseudovirus 6535.3 (HIV-1)"}, "[31]": {"target": "HIV-1 envelope of pseudovirus 6811.v7.c18 (HIV-1)"}, "[32]": {"target": "HIV-1 envelope of pseudovirus 9004SS_A3_4 (HIV-1)"}, "[33]": {"target": "HIV-1 envelope of pseudovirus A07412M1.vrc12 (HIV-1)"}, "[34]": {"target": "HIV-1 envelope of pseudovirus BJOX009000.02.4 (HIV-1)"}, "[35]": {"target": "HIV-1 envelope of pseudovirus C3347.c11 (HIV-1)"}, "[36]": {"target": "HIV-1 envelope of pseudovirus C4118.c09 (HIV-1)"}, "[37]": {"target": "HIV-1 envelope of pseudovirus CNE21 (HIV-1)"}, "[38]": {"target": "HIV-1 envelope of pseudovirus CNE5 (HIV-1)"}, "[39]": {"target": "HIV-1 envelope of pseudovirus Ce0393_C3 (HIV-1)"}, "[40]": {"target": "HIV-1 envelope of pseudovirus Ce0682_E4 (HIV-1)"}, "[41]": {"target": "HIV-1 envelope of pseudovirus Du172.17 (HIV-1)"}, "[42]": {"target": "HIV-1 envelope of pseudovirus HIV-0013095-2.11 (HIV-1)"}, "[43]": {"target": "HIV-1 envelope of pseudovirus HIV-16055-2.3 (HIV-1)"}, "[44]": {"target": "HIV-1 envelope of pseudovirus Q23.17 (HIV-1)"}, "[45]": {"target": "HIV-1 envelope of pseudovirus REJO4541.67 (HIV-1)"}, "[46]": {"target": "HIV-1 envelope of pseudovirus T251-18 (HIV-1)"}, "[47]": {"target": "HIV-1 envelope of pseudovirus T257-31 (HIV-1)"}, "[48]": {"target": "HIV-1 envelope of pseudovirus T278-50 (HIV-1)"}, "[49]": {"target": "HIV-1 envelope of pseudovirus X1193_c1 (HIV-1)"}, "[50]": {"target": "HIV-1 envelope of pseudovirus X1254_c3 (HIV-1)"}, "[51]": {"target": "HIV-1 envelope of pseudovirus ZM249M.PL1 (HIV-1)"}}}
{"substance": "10-1074 (antibody)", "values": [{"measurement": "IC80 (TZM-bl neutralization)", "setting": "[1]", "value": 0.128, "unit": "µg/mL"}, {"measurement": "IC80 (TZM-bl neutralization)", "setting": "[2]", "value": 0.163, "unit": "µg/mL"}, {"measurement": "IC80 (TZM-bl neutralization)", "setting": "[3]", "value": 6.53, "unit": "µg/mL"}, {"measurement": "IC80 (TZM-bl neutralization)", "setting": "[4]", "value": 14.9, "unit": "µg/mL"}, {"measurement": "IC80 (TZM-bl neutralization)", "setting": "[5]", "value": 0.041, "unit": "µg/mL"}, {"measurement": "IC80 (TZM-bl neutralization)", "setting": "[6]", "value": 0.11, "unit": "µg/mL"}, {"measurement": "IC80 (TZM-bl neutralization)", "setting": "[7]", "value": "> 50", "unit": "µg/mL"}, {"measurement": "IC80 (TZM-bl neutralization)", "setting": "[8]", "value": "> 50", "unit": "µg/mL"}, {"measurement": "IC80 (TZM-bl neutralization)", "setting": "[9]", "value": "> 50", "unit": "µg/mL"}, {"measurement": "IC80 (TZM-bl neutralization)", "setting": "[10]", "value": "> 50", "unit": "µg/mL"}, {"measurement": "IC80 (TZM-bl neutralization)", "setting": "[11]", "value": 13.1, "unit": "µg/mL"}, {"measurement": "IC80 (TZM-bl neutralization)", "setting": "[12]", "value": "> 50", "unit": "µg/mL"}, {"measurement": "IC80 (TZM-bl neutralization)", "setting": "[13]", "value": "> 50", "unit": "µg/mL"}, {"measurement": "IC80 (TZM-bl neutralization)", "setting": "[14]", "value": 0.07, "unit": "µg/mL"}, {"measurement": "IC80 (TZM-bl neutralization)", "setting": "[15]", "value": "> 50", "unit": "µg/mL"}, {"measurement": "IC80 (TZM-bl neutralization)", "setting": "[16]", "value": 0.43, "unit": "µg/mL"}, {"measurement": "IC80 (TZM-bl neutralization)", "setting": "[17]", "value": 0.166, "unit": "µg/mL"}, {"measurement": "IC80 (TZM-bl neutralization)", "setting": "[18]", "value": 0.261, "unit": "µg/mL"}, {"measurement": "IC80 (TZM-bl neutralization)", "setting": "[19]", "value": 0.36, "unit": "µg/mL"}, {"measurement": "IC80 (TZM-bl neutralization)", "setting": "[20]", "value": "> 50", "unit": "µg/mL"}, {"measurement": "IC80 (TZM-bl neutralization)", "setting": "[21]", "value": "> 50", "unit": "µg/mL"}, {"measurement": "IC80 (TZM-bl neutralization)", "setting": "[22]", "value": 0.929, "unit": "µg/mL"}, {"measurement": "IC80 (TZM-bl neutralization)", "setting": "[23]", "value": 0.418, "unit": "µg/mL"}, {"measurement": "IC80 (TZM-bl neutralization)", "setting": "[24]", "value": 2.11, "unit": "µg/mL"}, {"measurement": "IC80 (TZM-bl neutralization)", "setting": "[25]", "value": "> 50", "unit": "µg/mL"}, {"measurement": "IC50 (TZM-bl neutralization)", "setting": "[26]", "value": 0.129, "unit": "µg/mL"}, {"measurement": "IC50 (TZM-bl neutralization)", "setting": "[27]", "value": "> 50", "unit": "µg/mL"}, {"measurement": "IC50 (TZM-bl neutralization)", "setting": "[28]", "value": 0.037, "unit": "µg/mL"}, {"measurement": "IC50 (TZM-bl neutralization)", "setting": "[29]", "value": "> 50", "unit": "µg/mL"}, {"measurement": "IC50 (TZM-bl neutralization)", "setting": "[30]", "value": 0.014, "unit": "µg/mL"}, {"measurement": "IC50 (TZM-bl neutralization)", "setting": "[31]", "value": 0.002, "unit": "µg/mL"}, {"measurement": "IC50 (TZM-bl neutralization)", "setting": "[32]", "value": 0.011, "unit": "µg/mL"}, {"measurement": "IC50 (TZM-bl neutralization)", "setting": "[33]", "value": "< 0.001", "unit": "µg/mL"}, {"measurement": "IC50 (TZM-bl neutralization)", "setting": "[34]", "value": "> 50", "unit": "µg/mL"}, {"measurement": "IC50 (TZM-bl neutralization)", "setting": "[35]", "value": "> 50", "unit": "µg/mL"}, {"measurement": "IC50 (TZM-bl neutralization)", "setting": "[36]", "value": "> 50", "unit": "µg/mL"}, {"measurement": "IC50 (TZM-bl neutralization)", "setting": "[37]", "value": 0.087, "unit": "µg/mL"}, {"measurement": "IC50 (TZM-bl neutralization)", "setting": "[38]", "value": "> 50", "unit": "µg/mL"}, {"measurement": "IC50 (TZM-bl neutralization)", "setting": "[39]", "value": "> 50", "unit": "µg/mL"}, {"measurement": "IC50 (TZM-bl neutralization)", "setting": "[40]", "value": "> 50", "unit": "µg/mL"}, {"measurement": "IC50 (TZM-bl neutralization)", "setting": "[41]", "value": 0.121, "unit": "µg/mL"}, {"measurement": "IC50 (TZM-bl neutralization)", "setting": "[42]", "value": "> 50", "unit": "µg/mL"}, {"measurement": "IC50 (TZM-bl neutralization)", "setting": "[43]", "value": "> 50", "unit": "µg/mL"}, {"measurement": "IC50 (TZM-bl neutralization)", "setting": "[44]", "value": 0.006, "unit": "µg/mL"}, {"measurement": "IC50 (TZM-bl neutralization)", "setting": "[45]", "value": "> 50", "unit": "µg/mL"}, {"measurement": "IC50 (TZM-bl neutralization)", "setting": "[46]", "value": 1.08, "unit": "µg/mL"}, {"measurement": "IC50 (TZM-bl neutralization)", "setting": "[47]", "value": "> 50", "unit": "µg/mL"}, {"measurement": "IC50 (TZM-bl neutralization)", "setting": "[48]", "value": 2.15, "unit": "µg/mL"}, {"measurement": "IC50 (TZM-bl neutralization)", "setting": "[49]", "value": 0.083, "unit": "µg/mL"}, {"measurement": "IC50 (TZM-bl neutralization)", "setting": "[50]", "value": 0.089, "unit": "µg/mL"}, {"measurement": "IC50 (TZM-bl neutralization)", "setting": "[51]", "value": "> 50", "unit": "µg/mL"}]}
